System: Escherichia coli TOP10
Assay: shrunken log2 fold change of peptide-encoding DNA abundance (4.5 h post-induction vs induction); higher = less antimicrobial activity (less host growth inhibition)
Details: time post-induction: 4.5 h; library: site-saturation at positions 5, 18, 19, 20
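Further: peptides expressed intracellularly from a pBAD plasmid library in pooled LB shake-flask culture, induced with 0.3% L-arabinose, DNA abundance read by NGS, three biological replicates, DESeq2 with apeglm shrinkage.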

RRIRGRPPRLPRPRPRPFSLPRP
shrunken log2 fold change: -0.693

RRIRGRPPRLPRPRPRPFSQPRP
shrunken log2 fold change: 0.194

RRIRGRPPRLPRPRPRPFSRPRP
shrunken log2 fold change: 0.612

RRIRGRPPRLPRPRPRPFTAPRP
shrunken log2 fold change: 0.272

RRIRGRPPRLPRPRPRPFTKPRP
shrunken log2 fold change: -0.282

RRIRGRPPRLPRPRPRPFTSPRP
shrunken log2 fold change: -0.0475

RRIRGRPPRLPRPRPRPFWNPRP
shrunken log2 fold change: 0.087

RRIRGRPPRLPRPRPRPFWPPRP
shrunken log2 fold change: 0.653

RRIRGRPPRLPRPRPRPFYSPRP
shrunken log2 fold change: -0.00304

RRIRGRPPRLPRPRPRPGDGPRP
shrunken log2 fold change: 0.895

RRIRGRPPRLPRPRPRPGDRPRP
shrunken log2 fold change: 1

RRIRGRPPRLPRPRPRPGEFPRP
shrunken log2 fold change: 0.329

RRIRGRPPRLPRPRPRPGGEPRP
shrunken log2 fold change: 1.24

RRIRGRPPRLPRPRPRPGGKPRP
shrunken log2 fold change: 0.555

RRIRGRPPRLPRPRPRPGGRPRP
shrunken log2 fold change: 1.09

RRIRGRPPRLPRPRPRPGHIPRP
shrunken log2 fold change: 0.299

RRIRGRPPRLPRPRPRPGHQPRP
shrunken log2 fold change: 0.124

RRIRGRPPRLPRPRPRPGHRPRP
shrunken log2 fold change: 0.263

RRIRGRPPRLPRPRPRPGIKPRP
shrunken log2 fold change: 0.429

RRIRGRPPRLPRPRPRPGITPRP
shrunken log2 fold change: 0.356

RRIRGRPPRLPRPRPRPGLVPRP
shrunken log2 fold change: 0.848

RRIRGRPPRLPRPRPRPGMHPRP
shrunken log2 fold change: 0.589

RRIRGRPPRLPRPRPRPGMIPRP
shrunken log2 fold change: 0.309

RRIRGRPPRLPRPRPRPGNGPRP
shrunken log2 fold change: 0.434

RRIRGRPPRLPRPRPRPGQKPRP
shrunken log2 fold change: 0.494

RRIRGRPPRLPRPRPRPGSLPRP
shrunken log2 fold change: 0.421

RRIRGRPPRLPRPRPRPGVKPRP
shrunken log2 fold change: 0.588

RRIRGRPPRLPRPRPRPGVPPRP
shrunken log2 fold change: 1

RRIRGRPPRLPRPRPRPGWQPRP
shrunken log2 fold change: 0.0826

RRIRGRPPRLPRPRPRPGYEPRP
shrunken log2 fold change: 0.365

RRIRGRPPRLPRPRPRPHAEPRP
shrunken log2 fold change: 2.68

RRIRGRPPRLPRPRPRPHAIPRP
shrunken log2 fold change: 0.46

RRIRGRPPRLPRPRPRPHDEPRP
shrunken log2 fold change: 0.136

RRIRGRPPRLPRPRPRPHEHPRP
shrunken log2 fold change: 1.13

RRIRGRPPRLPRPRPRPHGMPRP
shrunken log2 fold change: 0.0949

RRIRGRPPRLPRPRPRPHKEPRP
shrunken log2 fold change: -0.0695

RRIRGRPPRLPRPRPRPHKLPRP
shrunken log2 fold change: 0.213

RRIRGRPPRLPRPRPRPHLYPRP
shrunken log2 fold change: 0.155

RRIRGRPPRLPRPRPRPHMDPRP
shrunken log2 fold change: 0.0325

RRIRGRPPRLPRPRPRPHNFPRP
shrunken log2 fold change: 0.0511

RRIRGRPPRLPRPRPRPHNHPRP
shrunken log2 fold change: -0.27

RRIRGRPPRLPRPRPRPHNQPRP
shrunken log2 fold change: 0.05

RRIRGRPPRLPRPRPRPHQEPRP
shrunken log2 fold change: 0.305

RRIRGRPPRLPRPRPRPHQTPRP
shrunken log2 fold change: 0.242

RRIRGRPPRLPRPRPRPHQVPRP
shrunken log2 fold change: 0.078

RRIRGRPPRLPRPRPRPHSAPRP
shrunken log2 fold change: 0.0365

RRIRGRPPRLPRPRPRPHSPPRP
shrunken log2 fold change: 0.289

RRIRGRPPRLPRPRPRPHTVPRP
shrunken log2 fold change: -0.311

RRIRGRPPRLPRPRPRPHVHPRP
shrunken log2 fold change: -0.332

RRIRGRPPRLPRPRPRPHWEPRP
shrunken log2 fold change: 0.324

RRIRGRPPRLPRPRPRPHYVPRP
shrunken log2 fold change: -0.0585

RRIRGRPPRLPRPRPRPIACPRP
shrunken log2 fold change: 0.526

RRIRGRPPRLPRPRPRPIAFPRP
shrunken log2 fold change: 0.8

RRIRGRPPRLPRPRPRPICIPRP
shrunken log2 fold change: 0.176

RRIRGRPPRLPRPRPRPICVPRP
shrunken log2 fold change: 0.269

RRIRGRPPRLPRPRPRPIEGPRP
shrunken log2 fold change: 0.0275

RRIRGRPPRLPRPRPRPIESPRP
shrunken log2 fold change: 0.108

RRIRGRPPRLPRPRPRPIFEPRP
shrunken log2 fold change: 0.357

RRIRGRPPRLPRPRPRPIFHPRP
shrunken log2 fold change: 0.249

RRIRGRPPRLPRPRPRPIGYPRP
shrunken log2 fold change: -0.017

RRIRGRPPRLPRPRPRPIINPRP
shrunken log2 fold change: 0.0488

RRIRGRPPRLPRPRPRPIKWPRP
shrunken log2 fold change: 0.434

RRIRGRPPRLPRPRPRPILLPRP
shrunken log2 fold change: -0.0679

RRIRGRPPRLPRPRPRPINAPRP
shrunken log2 fold change: 0.288

RRIRGRPPRLPRPRPRPINQPRP
shrunken log2 fold change: -0.0767

RRIRGRPPRLPRPRPRPIPWPRP
shrunken log2 fold change: 0.361

RRIRGRPPRLPRPRPRPIRCPRP
shrunken log2 fold change: 0.261

RRIRGRPPRLPRPRPRPIRMPRP
shrunken log2 fold change: 0.0246

RRIRGRPPRLPRPRPRPISGPRP
shrunken log2 fold change: 0.000749

RRIRGRPPRLPRPRPRPISNPRP
shrunken log2 fold change: 0.0729

RRIRGRPPRLPRPRPRPIWVPRP
shrunken log2 fold change: -0.0275

RRIRGRPPRLPRPRPRPIYFPRP
shrunken log2 fold change: -0.533

RRIRGRPPRLPRPRPRPKFCPRP
shrunken log2 fold change: 0.23

RRIRGRPPRLPRPRPRPKHGPRP
shrunken log2 fold change: 0.699

RRIRGRPPRLPRPRPRPKLWPRP
shrunken log2 fold change: 0.896

RRIRGRPPRLPRPRPRPKLYPRP
shrunken log2 fold change: 0.354

RRIRGRPPRLPRPRPRPKNFPRP
shrunken log2 fold change: 0.0583

RRIRGRPPRLPRPRPRPKNKPRP
shrunken log2 fold change: 0.375

RRIRGRPPRLPRPRPRPKPMPRP
shrunken log2 fold change: 0.419

RRIRGRPPRLPRPRPRPKRHPRP
shrunken log2 fold change: 1

RRIRGRPPRLPRPRPRPKSFPRP
shrunken log2 fold change: 0.0944

RRIRGRPPRLPRPRPRPKTLPRP
shrunken log2 fold change: 0.872

RRIRGRPPRLPRPRPRPKTMPRP
shrunken log2 fold change: 0.459

RRIRGRPPRLPRPRPRPKTSPRP
shrunken log2 fold change: 0.702

RRIRGRPPRLPRPRPRPKTTPRP
shrunken log2 fold change: 0.521

RRIRGRPPRLPRPRPRPKVIPRP
shrunken log2 fold change: 0.197

RRIRGRPPRLPRPRPRPKWFPRP
shrunken log2 fold change: 0.0384

RRIRGRPPRLPRPRPRPKYCPRP
shrunken log2 fold change: 0.203

RRIRGRPPRLPRPRPRPKYWPRP
shrunken log2 fold change: 1.13

RRIRGRPPRLPRPRPRPLANPRP
shrunken log2 fold change: 0.835

RRIRGRPPRLPRPRPRPLCAPRP
shrunken log2 fold change: 1.55

RRIRGRPPRLPRPRPRPLCRPRP
shrunken log2 fold change: 0.598

RRIRGRPPRLPRPRPRPLCTPRP
shrunken log2 fold change: 2.26

RRIRGRPPRLPRPRPRPLDTPRP
shrunken log2 fold change: 0.963

RRIRGRPPRLPRPRPRPLETPRP
shrunken log2 fold change: 0.985

RRIRGRPPRLPRPRPRPLFCPRP
shrunken log2 fold change: 0.367

RRIRGRPPRLPRPRPRPLFLPRP
shrunken log2 fold change: 0.0673

RRIRGRPPRLPRPRPRPLHAPRP
shrunken log2 fold change: 1.54

RRIRGRPPRLPRPRPRPLHNPRP
shrunken log2 fold change: 0.249

RRIRGRPPRLPRPRPRPLIHPRP
shrunken log2 fold change: 0.324

RRIRGRPPRLPRPRPRPLISPRP
shrunken log2 fold change: 0.364

RRIRGRPPRLPRPRPRPLKLPRP
shrunken log2 fold change: 0.164

RRIRGRPPRLPRPRPRPLLVPRP
shrunken log2 fold change: 0.781

RRIRGRPPRLPRPRPRPLQCPRP
shrunken log2 fold change: 0.904

RRIRGRPPRLPRPRPRPLQKPRP
shrunken log2 fold change: 1.28

RRIRGRPPRLPRPRPRPLRAPRP
shrunken log2 fold change: 1.72

RRIRGRPPRLPRPRPRPLRDPRP
shrunken log2 fold change: 1.3

RRIRGRPPRLPRPRPRPLRHPRP
shrunken log2 fold change: 1.34

RRIRGRPPRLPRPRPRPLSPPRP
shrunken log2 fold change: 0.435

RRIRGRPPRLPRPRPRPLTCPRP
shrunken log2 fold change: 0.416

RRIRGRPPRLPRPRPRPLVRPRP
shrunken log2 fold change: 0.577

RRIRGRPPRLPRPRPRPLWIPRP
shrunken log2 fold change: 0.163

RRIRGRPPRLPRPRPRPLWLPRP
shrunken log2 fold change: 0.574

RRIRGRPPRLPRPRPRPLWQPRP
shrunken log2 fold change: 0.766

RRIRGRPPRLPRPRPRPLYAPRP
shrunken log2 fold change: 0.64

RRIRGRPPRLPRPRPRPLYGPRP
shrunken log2 fold change: -0.105

RRIRGRPPRLPRPRPRPLYKPRP
shrunken log2 fold change: 0.0468

RRIRGRPPRLPRPRPRPLYRPRP
shrunken log2 fold change: 1.11

RRIRGRPPRLPRPRPRPLYVPRP
shrunken log2 fold change: 0.0628

RRIRGRPPRLPRPRPRPMDCPRP
shrunken log2 fold change: 0.357

RRIRGRPPRLPRPRPRPMEKPRP
shrunken log2 fold change: 0.0535

RRIRGRPPRLPRPRPRPMEVPRP
shrunken log2 fold change: -0.121

RRIRGRPPRLPRPRPRPMFFPRP
shrunken log2 fold change: 0.336

RRIRGRPPRLPRPRPRPMFWPRP
shrunken log2 fold change: 0.336

RRIRGRPPRLPRPRPRPMGNPRP
shrunken log2 fold change: 0.124

RRIRGRPPRLPRPRPRPMKTPRP
shrunken log2 fold change: 0.494

RRIRGRPPRLPRPRPRPMKYPRP
shrunken log2 fold change: 0.0733

RRIRGRPPRLPRPRPRPMMNPRP
shrunken log2 fold change: 0.159

RRIRGRPPRLPRPRPRPMNEPRP
shrunken log2 fold change: 0.056

RRIRGRPPRLPRPRPRPMPNPRP
shrunken log2 fold change: -0.0294

RRIRGRPPRLPRPRPRPMPVPRP
shrunken log2 fold change: 0.447

RRIRGRPPRLPRPRPRPMSYPRP
shrunken log2 fold change: 0.0417

RRIRGRPPRLPRPRPRPMTAPRP
shrunken log2 fold change: 0.692

RRIRGRPPRLPRPRPRPMVCPRP
shrunken log2 fold change: 0.55

RRIRGRPPRLPRPRPRPMWRPRP
shrunken log2 fold change: 0.899

RRIRGRPPRLPRPRPRPMYFPRP
shrunken log2 fold change: -0.0129

RRIRGRPPRLPRPRPRPNANPRP
shrunken log2 fold change: 0.837

RRIRGRPPRLPRPRPRPNCSPRP
shrunken log2 fold change: 0.99

RRIRGRPPRLPRPRPRPNDDPRP
shrunken log2 fold change: 0.349

RRIRGRPPRLPRPRPRPNDGPRP
shrunken log2 fold change: 0.0995

RRIRGRPPRLPRPRPRPNDPPRP
shrunken log2 fold change: -0.0529

RRIRGRPPRLPRPRPRPNENPRP
shrunken log2 fold change: 0.931

RRIRGRPPRLPRPRPRPNHHPRP
shrunken log2 fold change: 0.491

RRIRGRPPRLPRPRPRPNIGPRP
shrunken log2 fold change: 0.138

RRIRGRPPRLPRPRPRPNIRPRP
shrunken log2 fold change: -0.135

RRIRGRPPRLPRPRPRPNKDPRP
shrunken log2 fold change: 0.179

RRIRGRPPRLPRPRPRPNKEPRP
shrunken log2 fold change: -0.00663

RRIRGRPPRLPRPRPRPNKIPRP
shrunken log2 fold change: 0.214

RRIRGRPPRLPRPRPRPNLCPRP
shrunken log2 fold change: -0.0201

RRIRGRPPRLPRPRPRPNLLPRP
shrunken log2 fold change: 0.485
